In paper PMC10799922:

Assays:
[1] = biological target: 3C8 iAb_(aff1) Fab (anti-OX40 clone 3C8 engrafted with the iAb_(aff1) residue set, expressed as a monomeric Fab)
[2] = biological target: 3C8 iAb_(aff1) Fab (anti-OX40 clone 3C8 engrafted with the iAb_(aff1) residue set, expressed as a monomeric Fab); test: AUC; sedimentation velocity; 3C8 iAb_(aff1) Fab at 0.6, 0.2 and 0.07 mg/ml in 25 mM histidine acetate pH 5.5, 150 mM NaCl; 20 °C, 50,000 RPM; global fit to a monomer-dimer equilibrium model (dimer to monomers)

- OX40 agonism of the monomeric Fab in Jurkat OX40 NF-kB luciferase reporter cells; EC50 against the full-length iAb (aff1) IgG [1]: 100 fold
- Kd [2]: 6.8 µM
- stoichiometry N [2]: 2
B1: 3C8 iAb_(aff1) Fab (anti-OX40 clone 3C8 engrafted with the iAb_(aff1) residue set, expressed as a monomeric Fab) (Fab, V domains shown)
VH: EVQLVQSGAEVKKPGATVVVLCKASGYAFTNYLIEWVRQAPGQGLEWIGVINPGSGDTYYSEKFKGRVTLFADTSTSQAILILTSLRSEDTAVYYCARDRLDYWGQGTLVTVSS
VL: DIQMTQSPSSLSASVGDRVTITCHASQDISSYIVWYQQKPGKSFKGLIYHGTNLESGVPSRFSGSGSGTDFTLTISSLQPEDFATYYCVHYAQFPYTFGQGTKVEIK
